The results in this text go back to the Immune Epitope Database (IEDB).

Broadly, the Kd is the constant that tells how readily two partners part at equilibrium. Broadly, the IC50 is the concentration needed to halve the response being measured. Low values mean higher potency, high ones lower potency.

The target in assay [1] is HLA-B*07:02. Kind of assay: IEDB peptide-MHC binding, purified MHC/direct/fluorescence; filed as Kd, often an IC50 or EC50 that approximates it; ≥ and ≤ were set here for values at or beyond the usual limits of such assays.
The target of assay [2] is HLA-B*15:01. Described as above.
The target of a further assay is HLA-B*51:01. Described as above. Conditions: source organism: Mycobacterium tuberculosis.
A further assay concerns the target HLA-A*32:07. Kind of assay: IEDB peptide-MHC binding, purified MHC/competitive/fluorescence; filed as Kd, often an IC50 or EC50 that approximates it; ≥ and ≤ were set here for values at or beyond the usual limits of such assays.
The next assay addresses HLA-B*15:42. The description is as above.
The target in another assay is HLA-B*45:06. The description is as above.
In a further assay the target is HLA-C*04:01. Described as above.
The target in a further assay is HLA-A*11:01. Kind of assay: IEDB peptide-MHC binding, purified MHC/direct/fluorescence; filed as Kd, often an IC50 or EC50 that approximates it; ≥ and ≤ were set here for values at or beyond the usual limits of such assays.
In assay [3] the target is HLA-A*31:01. Kind of assay: IEDB peptide-MHC binding, purified MHC/competitive/fluorescence; filed as Kd, often an IC50 or EC50 that approximates it; ≥ and ≤ were set here for values at or beyond the usual limits of such assays. Conditions: source organism: dengue virus type 1.
Another assay addresses HLA-B*83:01. The assay is described as above.
The next assay has as its target HLA-A*30:01. Kind of assay: IEDB peptide-MHC binding, purified MHC/competitive/radioactivity; filed as Kd, often an IC50 or EC50 that approximates it; ≥ and ≤ were set here for values at or beyond the usual limits of such assays. Conditions: source organism: Dengue virus 1 Brazil/97-11/1997.
The target of a further assay is HLA-A*32:01. Described as above. Conditions: source organism: Dengue virus 1 Brazil/97-11/1997.
The target of assay [4] is HLA-A*01:01. Kind of assay: IEDB peptide-MHC binding, purified MHC/direct/fluorescence; filed as Kd, often an IC50 or EC50 that approximates it; ≥ and ≤ were set here for values at or beyond the usual limits of such assays.
The target in assay [5] is HLA-A*02:01. Described as above.
For a further assay, the target named is HLA-A*03:01. The assay is described as above. The following applies: source organism: Escherichia coli O157:H7.
Assay [6] concerns the target HLA-A*31:01. The assay is described as above. The following applies: source organism: Escherichia coli O157:H7.
For assay [7], the target named is HLA-B*15:17. The assay is described as above. The following applies: source organism: Escherichia coli O157:H7.
Another assay concerns the target HLA-B*27:05. The assay is described as above.
In assay [8] the target is HLA-B*40:01. The description is as above.
For the next assay, the target named is HLA-B*46:01. The description is as above.
A further assay addresses HLA-B*48:01. Described as above.
A further assay deals with HLA-B*57:01. The assay is described as above.
The target of the next assay is HLA-B*58:01. The description is as above.
The target of another assay is HLA-A*02:06. Kind of assay: IEDB peptide-MHC binding, purified MHC/competitive/fluorescence; filed as Kd, often an IC50 or EC50 that approximates it; ≥ and ≤ were set here for values at or beyond the usual limits of such assays.
The target of another assay is HLA-A*26:02. Described as above.
In assay [9] the target is HLA-A*68:02. Described as above.
The target of assay [10] is HLA-A*69:01. Described as above. The following applies: source organism: Escherichia coli.
For assay [11], the target named is HLA-B*15:01. Described as above.
In assay [12] the target is HLA-A*01:01. Kind of assay: IEDB peptide-MHC binding, purified MHC/competitive/fluorescence; ≥ and ≤ were set here for values at or beyond the usual limits of such assays. Conditions: source organism: Zaire ebolavirus.
The target in another assay is HLA-A*24:02. The description is as above. Conditions: source organism: Zaire ebolavirus.
The target of a further assay is HLA-A*26:03. Kind of assay: IEDB peptide-MHC binding, purified MHC/direct/fluorescence; filed as Kd, often an IC50 or EC50 that approximates it; ≥ and ≤ were set here for values at or beyond the usual limits of such assays.
Assay [13] has as its target HLA-A*68:02. The assay is described as above. The following applies: source organism: Buffalopox virus.
The target in assay [14] is HLA-A*69:01. Described as above. Conditions: source organism: Buffalopox virus.
The target in another assay is HLA-B*39:01. Described as above. Conditions: source organism: Buffalopox virus.
Assay [15] deals with HLA-B*07:02. Kind of assay: IEDB peptide-MHC binding, purified MHC/competitive/fluorescence; filed as Kd, often an IC50 or EC50 that approximates it; ≥ and ≤ were set here for values at or beyond the usual limits of such assays. Conditions: source organism: Variola virus.
In assay [16] the target is HLA-B*15:17. Described as above. The following applies: source organism: Variola virus.
A further assay addresses HLA-B*18:01. Described as above. Conditions: source organism: Variola virus.
A further assay addresses HLA-B*35:01. Described as above. Conditions: source organism: Variola virus.
The target of assay [17] is HLA-B*40:01. The assay is described as above. The following applies: source organism: Yersinia pestis Nepal516.
For assay [18], the target named is HLA-A*02:01. The assay is described as above. The following applies: source organism: Toxoplasma gondii GT1.
The target of assay [19] is HLA-A*02:01. Kind of assay: IEDB peptide-MHC binding, purified MHC/competitive/fluorescence; ≥ and ≤ were set here for values at or beyond the usual limits of such assays. Conditions: source organism: Zaire ebolavirus.
In assay [20] the target is HLA-B*15:01. The description is as above. The following applies: source organism: Zaire ebolavirus.
Where [21] appears, read: source organism: Mycobacterium tuberculosis.
Where [22] appears, read: source organism: dengue virus type 1.
[23] abbreviates: source organism: Escherichia coli O157:H7.
[24] abbreviates: source organism: Escherichia coli.
[25] abbreviates: source organism: Buffalopox virus.
Where [26] appears, read: source organism: Francisella tularensis subsp. tularensis FSC198.
Where [27] appears, read: source organism: Yersinia pestis Nepal516.

With ALRQARAAF, the Kd is 0.0089 µM in the assay with HLA-B*07:02 [1] (setting [21]); 0.012 µM with HLA-B*15:01 [2] (source organism: Mycobacterium tuberculosis str. Haarlem); ≥ 20 µM with HLA-B*51:01; 0.157 µM with HLA-A*32:07 (setting [21]); ≥ 5 µM with HLA-B*15:42 (setting [21]); ≥ 5 µM with HLA-B*45:06 (setting [21]). Further, the Kd in the assay with HLA-C*04:01 (setting [21]) is ≥ 5 µM.
Take ATYGWNLVK: the Kd in the assay with HLA-A*11:01 (source organism: Dengue virus 1 Singapore/S275/1990) was ≤ 0.001 µM; in the assay with HLA-A*31:01 [3] it was 0.00148 µM; in the assay with HLA-A*32:07 (setting [22]) it was 0.0774 µM; with HLA-B*15:42 (setting [22]), ≥ 5 µM; in the assay with HLA-B*45:06 (setting [22]), ≥ 5 µM; in the assay with HLA-B*83:01 (setting [22]), ≥ 5 µM. Further, the figures for the Kd with HLA-A*30:01 and in the assay with HLA-A*32:01 were 0.212 µM and 0.755 µM, respectively.
In the case of EQRLIDICV, the Kd with HLA-A*01:01 [4] (setting [23]), with HLA-A*02:01 [5] (setting [23]), in the assay with HLA-A*03:01, with HLA-A*11:01 (setting [23]), with HLA-A*31:01 [6] and in the assay with HLA-B*07:02 [1] (setting [23]) was ≥ 20 µM throughout. Further, the Kd in the assay with HLA-B*15:17 [7], with HLA-B*27:05 (setting [23]), with HLA-B*40:01 [8] (setting [23]), in the assay with HLA-B*46:01 (setting [23]), in the assay with HLA-B*48:01 (setting [23]) and with HLA-B*57:01 (setting [23]) was ≥ 20 µM in each case. For the same sequence, the Kd in the assay with HLA-B*58:01 (setting [23]) is ≥ 20 µM; with HLA-A*02:06 (setting [24]), 0.846 µM; in the assay with HLA-A*26:02 (setting [24]) it was ≥ 20 µM; in the assay with HLA-A*68:02 [9] (setting [24]) it was ≥ 20 µM; in the assay with HLA-A*69:01 [10], ≥ 20 µM; in the assay with HLA-B*15:01 [11] (setting [24]), 0.863 µM.
Take HKEGAFFLY: the IC50 in the assay with HLA-A*01:01 [12] was ≥ 136 µM; with HLA-A*24:02, ≥ 149 µM.
Turning to HVFVCGNNM, in the assay with HLA-A*26:03 (source organism: Fowlpox virus), the Kd came to 0.076 µM.
On to IHSDQLSKF, for which the Kd with HLA-A*01:01 [4] (setting [25]), in the assay with HLA-A*02:01 [5] (setting [25]), in the assay with HLA-A*26:03 (source organism: Variola virus), in the assay with HLA-A*68:02 [13], with HLA-A*69:01 [14] and in the assay with HLA-B*15:01 [2] (setting [25]) was ≥ 20 µM throughout. For the same sequence, the Kd with HLA-B*27:05 (setting [25]), with HLA-B*39:01, in the assay with HLA-B*40:01 [8] (setting [25]), with HLA-B*46:01 (setting [25]), with HLA-B*48:01 (setting [25]) and with HLA-B*57:01 (setting [25]) was ≥ 20 µM throughout. Moreover, the Kd with HLA-B*58:01 (setting [25]) is ≥ 20 µM; with HLA-A*26:02 (source organism: Variola virus), 2.68 µM; in the assay with HLA-B*07:02 [15], ≥ 20 µM; in the assay with HLA-B*15:17 [16], ≥ 20 µM; with HLA-B*18:01 it was 4.57 µM; with HLA-B*35:01, 2.38 µM.
Turning to MGAGLVFPI, the Kd with HLA-A*32:07 (setting [26]) is 0.0448 µM; with HLA-A*68:02 [9] (setting [26]), ≤ 0.0001 µM; with HLA-B*15:42 (setting [26]) it was ≥ 5 µM; in the assay with HLA-B*45:06 (setting [26]) it was ≥ 5 µM; in the assay with HLA-B*83:01 (setting [26]) it was ≥ 5 µM; in the assay with HLA-C*04:01 (setting [26]), ≥ 5 µM.
As to VEMQLAVVI, the Kd in the assay with HLA-B*15:01 [11] (setting [27]) is ≥ 20 µM; with HLA-B*15:42 (setting [27]), ≥ 5 µM; with HLA-B*40:01 [17] it was 0.0079 µM; with HLA-B*45:06 (setting [27]), ≥ 5 µM; with HLA-B*83:01 (setting [27]), ≥ 5 µM; with HLA-C*04:01 (setting [27]), ≥ 5 µM.
Turning to VLGSWPVDL, the Kd in the assay with HLA-A*02:01 [18] was 0.209 µM; with HLA-A*02:06 (source organism: Toxoplasma gondii GT1) it was 2.46 µM.
In the case of YLEGHGFRF, the IC50 with HLA-A*01:01 [12] is ≥ 76.3 µM; in the assay with HLA-A*02:01 [19], 0.403 µM; with HLA-A*24:02 it was 0.18 µM; with HLA-B*15:01 [20], 17.6 µM.
